# Patent publication US20040086528A1 (PROGENICS PHARMACEUTICALS, published 2004)
# How the values were obtained:
# [1] = target: T1, soluble CD4 (UniProt P01730 26-394); assay: 125I-MIP-1β competition on activated CD4+ T cells
# T1 construct: also called sCD4
# Description: (§1) PBMCs were isolated from blood donors by Ficoll-Hypaque centrifugation, and stimulated for 2-3 days with phytohaemagglutnin (5 μg ml⁻¹) and IL-2 (100 U ml⁻¹) (Roche). CD4⁺ T cells were purified from the activated PBMCs by positive selection using anti-CD4 immunomagnetic beads (Dynal Inc.). […] The cells were screened for CCR-5-defective alleles(14), and only cells from wild-type donors were used (except when specified).
# (§2) Unlabelled ligand or gp120 (mixed with monoclonal antibodies when appropriate) was added to the cells immediately before radiolabelled ligand was added. Anti-CD4 monoclonal antibodies were added to the cells simultaneously with gp120. These cells were then separated from unbound ligand by centrifugation (60 s, 14, 000 g) through oil (80% silicone oil, Aldrich; 20% mineral oil, Sigma), and the radioactivity in the cell pellet was determined by gamma counting. […] Each experiment was repeated at least twice using cells from different donors.
# [2] = target: T2, SF162 gp120 (HIV-1 SF162, UniProt P19550 32-502); assay: 125I-MIP-1β competition on activated CD4+ T cells
# T2 construct: domain: gp120; also called SF 162 (B)
# Description: as §1, §2
binder,measurement,setting,value
"chemokine receptor C-C CKR-5 (human) (receptor, whole, on cells; also called CCR-5; CCR5) not shown",binding result,[1],no binding (tested: 50 µg ml^-1)
same,binding result,[2],binds
